Legend:
SEPTIN11 (human) [1] = molecular target: SEPTIN11 (human) (UniProt Q9NVA2); assay: HaloLink pulldown from unperturbed A375 cells, LC-MS/MS
SEPTIN7 (human) [2] = molecular target: SEPTIN7 (human) (UniProt Q16181); assay: as above
SEPTIN8 (human) [3] = molecular target: SEPTIN8 (human) (UniProt Q92599); assay: as above
SEPTIN2 (human) [4] = molecular target: SEPTIN2 (human) (UniProt Q15019); assay: as above
SEPTIN6 (human) [5] = molecular target: SEPTIN6 (human) (UniProt Q14141); assay: as above
SEPTIN9 (human) [6] = molecular target: SEPTIN9 (human) (UniProt Q9UHD8); assay: as above
SEPTIN10 (human) [7] = molecular target: SEPTIN10 (human) (UniProt Q9P0V9); assay: as above
SEPTIN11 (human) [8] = molecular target: SEPTIN11 (human) (UniProt Q9NVA2); assay: HaloLink pulldown from MV3 cells, LC-MS/MS
SEPTIN7 (human) [9] = molecular target: SEPTIN7 (human) (UniProt Q16181); assay: HaloLink pulldown from MV3 cells, LC-MS/MS
SEPTIN8 (human) [10] = molecular target: SEPTIN8 (human) (UniProt Q92599); assay: HaloLink pulldown from MV3 cells, LC-MS/MS
SEPTIN2 (human) [11] = molecular target: SEPTIN2 (human) (UniProt Q15019); assay: HaloLink pulldown from MV3 cells, LC-MS/MS
SEPTIN6 (human) [12] = molecular target: SEPTIN6 (human) (UniProt Q14141); assay: HaloLink pulldown from MV3 cells, LC-MS/MS
SEPTIN9 (human) [13] = molecular target: SEPTIN9 (human) (UniProt Q9UHD8); assay: HaloLink pulldown from MV3 cells, LC-MS/MS
SEPTIN10 (human) [14] = molecular target: SEPTIN10 (human) (UniProt Q9P0V9); assay: HaloLink pulldown from MV3 cells, LC-MS/MS

Sequence of SEPTIN10 (human) (Q9P0V9 whole entry): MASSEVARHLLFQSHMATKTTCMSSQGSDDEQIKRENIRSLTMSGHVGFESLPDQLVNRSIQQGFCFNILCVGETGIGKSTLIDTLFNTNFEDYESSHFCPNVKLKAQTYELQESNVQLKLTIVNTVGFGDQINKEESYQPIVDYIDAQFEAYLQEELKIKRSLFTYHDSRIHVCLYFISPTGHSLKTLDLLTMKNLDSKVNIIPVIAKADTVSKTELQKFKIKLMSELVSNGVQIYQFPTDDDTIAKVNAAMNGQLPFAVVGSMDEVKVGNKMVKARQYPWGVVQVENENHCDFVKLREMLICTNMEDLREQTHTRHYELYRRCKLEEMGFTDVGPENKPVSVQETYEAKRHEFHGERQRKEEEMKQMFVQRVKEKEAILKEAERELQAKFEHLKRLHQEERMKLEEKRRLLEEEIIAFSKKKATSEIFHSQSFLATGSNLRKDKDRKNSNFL
Sequence of SEPTIN2 (human) (Q15019 whole entry): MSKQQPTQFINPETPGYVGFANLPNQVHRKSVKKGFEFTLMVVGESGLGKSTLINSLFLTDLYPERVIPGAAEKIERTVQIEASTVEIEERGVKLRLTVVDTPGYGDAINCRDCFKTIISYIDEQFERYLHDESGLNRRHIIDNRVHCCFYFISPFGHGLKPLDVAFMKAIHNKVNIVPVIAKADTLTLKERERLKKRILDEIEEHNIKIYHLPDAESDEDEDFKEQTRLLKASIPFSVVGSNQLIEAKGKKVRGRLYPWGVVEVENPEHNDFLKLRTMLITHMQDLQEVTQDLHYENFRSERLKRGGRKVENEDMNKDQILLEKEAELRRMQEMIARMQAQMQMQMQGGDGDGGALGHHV
Sequence of SEPTIN7 (human) (Q16181 2-437 limits assumed): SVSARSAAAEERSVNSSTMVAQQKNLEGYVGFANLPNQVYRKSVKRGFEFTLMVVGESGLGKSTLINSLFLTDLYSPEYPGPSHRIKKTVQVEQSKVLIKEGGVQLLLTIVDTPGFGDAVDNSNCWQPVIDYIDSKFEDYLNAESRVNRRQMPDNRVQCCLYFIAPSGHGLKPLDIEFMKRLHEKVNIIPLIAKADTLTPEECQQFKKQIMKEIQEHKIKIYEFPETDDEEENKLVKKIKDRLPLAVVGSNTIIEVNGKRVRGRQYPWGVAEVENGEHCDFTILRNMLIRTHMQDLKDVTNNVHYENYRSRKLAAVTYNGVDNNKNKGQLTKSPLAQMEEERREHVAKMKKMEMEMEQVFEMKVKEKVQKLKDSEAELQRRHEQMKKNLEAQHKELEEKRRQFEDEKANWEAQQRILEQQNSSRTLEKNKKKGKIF
Sequence of SEPTIN9 (human) (Q9UHD8 whole entry): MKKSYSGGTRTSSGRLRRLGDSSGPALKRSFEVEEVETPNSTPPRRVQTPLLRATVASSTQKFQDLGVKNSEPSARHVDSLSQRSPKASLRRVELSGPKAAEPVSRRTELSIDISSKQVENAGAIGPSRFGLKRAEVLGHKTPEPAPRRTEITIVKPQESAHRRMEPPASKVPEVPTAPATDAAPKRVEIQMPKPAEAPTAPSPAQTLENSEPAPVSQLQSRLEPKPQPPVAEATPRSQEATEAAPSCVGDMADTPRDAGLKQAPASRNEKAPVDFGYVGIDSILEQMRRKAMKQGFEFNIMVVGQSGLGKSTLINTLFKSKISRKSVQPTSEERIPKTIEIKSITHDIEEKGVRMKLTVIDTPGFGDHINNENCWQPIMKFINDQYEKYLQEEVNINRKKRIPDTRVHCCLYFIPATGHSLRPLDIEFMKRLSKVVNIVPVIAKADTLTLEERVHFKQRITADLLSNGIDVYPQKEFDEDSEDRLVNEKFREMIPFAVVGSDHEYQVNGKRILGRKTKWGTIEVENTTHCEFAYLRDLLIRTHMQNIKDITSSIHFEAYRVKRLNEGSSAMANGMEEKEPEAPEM
Sequence of SEPTIN8 (human) (Q92599 2-483 limits assumed): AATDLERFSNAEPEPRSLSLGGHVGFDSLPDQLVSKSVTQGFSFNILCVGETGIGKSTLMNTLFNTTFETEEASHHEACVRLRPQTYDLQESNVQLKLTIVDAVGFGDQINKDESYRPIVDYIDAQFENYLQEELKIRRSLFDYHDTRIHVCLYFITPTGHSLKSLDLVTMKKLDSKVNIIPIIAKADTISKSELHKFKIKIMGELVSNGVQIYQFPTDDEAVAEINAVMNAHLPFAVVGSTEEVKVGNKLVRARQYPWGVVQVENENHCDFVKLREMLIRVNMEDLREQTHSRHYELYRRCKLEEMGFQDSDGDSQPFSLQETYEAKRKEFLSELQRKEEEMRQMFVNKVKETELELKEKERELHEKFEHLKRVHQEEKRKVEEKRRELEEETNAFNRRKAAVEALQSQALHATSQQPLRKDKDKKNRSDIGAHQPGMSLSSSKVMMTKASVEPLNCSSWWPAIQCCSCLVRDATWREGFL
Sequence of SEPTIN11 (human) (Q9NVA2 2-429 limits assumed): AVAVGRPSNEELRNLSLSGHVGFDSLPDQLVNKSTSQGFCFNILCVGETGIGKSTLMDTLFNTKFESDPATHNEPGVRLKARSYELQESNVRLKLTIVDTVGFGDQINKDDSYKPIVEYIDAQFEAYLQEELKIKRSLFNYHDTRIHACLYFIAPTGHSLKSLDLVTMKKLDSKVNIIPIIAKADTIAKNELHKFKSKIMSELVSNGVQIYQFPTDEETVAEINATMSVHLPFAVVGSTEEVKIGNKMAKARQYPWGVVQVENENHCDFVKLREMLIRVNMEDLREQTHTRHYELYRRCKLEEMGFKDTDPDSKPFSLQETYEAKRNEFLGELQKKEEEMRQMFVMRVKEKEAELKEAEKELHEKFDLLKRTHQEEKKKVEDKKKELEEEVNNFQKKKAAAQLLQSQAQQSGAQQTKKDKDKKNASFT
Sequence of SEPTIN6 (human) (Q14141 2-434 limits assumed): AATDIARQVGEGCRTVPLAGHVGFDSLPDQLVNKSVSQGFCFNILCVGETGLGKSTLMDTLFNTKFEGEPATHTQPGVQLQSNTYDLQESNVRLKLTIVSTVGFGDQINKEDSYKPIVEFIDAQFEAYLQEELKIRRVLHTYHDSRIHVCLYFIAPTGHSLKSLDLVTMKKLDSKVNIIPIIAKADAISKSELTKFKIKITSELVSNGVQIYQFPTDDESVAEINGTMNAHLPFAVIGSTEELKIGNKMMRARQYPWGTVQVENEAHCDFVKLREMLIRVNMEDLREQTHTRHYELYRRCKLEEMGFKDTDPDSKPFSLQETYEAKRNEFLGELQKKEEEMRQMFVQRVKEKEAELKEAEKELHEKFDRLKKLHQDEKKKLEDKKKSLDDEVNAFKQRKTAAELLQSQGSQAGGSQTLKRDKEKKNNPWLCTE

Q: With “mouse SEPT6-HALO (from UniProt Q9R1T4 2-434)” as the substance, how does the % of total protein abundance (SEPTIN11 (human) [1]) read?
A: The % of total protein abundance was < 0.01%.

Q: And the % of total septin abundance (SEPTIN11 (human) [1])?
A: Its % of total septin abundance is 0.12%.

Q: What about the fold change between lysate and pulldown (% of total septin abundance) (SEPTIN11 (human) [1]) of the same substance?
A: Its fold change between lysate and pulldown (% of total septin abundance) is -44.7 fold.

Q: What about the % of total protein abundance (SEPTIN7 (human) [2]) of the same substance?
A: The % of total protein abundance was 1.48%.

Q: And the % of total septin abundance (SEPTIN7 (human) [2])?
A: The % of total septin abundance was 21.1%.

Q: And the fold change between lysate and pulldown (% of total protein abundance) (SEPTIN7 (human) [2])?
A: The fold change between lysate and pulldown (% of total protein abundance) was 74 fold.

Q: What about the fold change between lysate and pulldown (% of total septin abundance) (SEPTIN7 (human) [2]) of the same substance?
A: Its fold change between lysate and pulldown (% of total septin abundance) is 1.35 fold.

Q: And the % of total protein abundance (SEPTIN8 (human) [3])?
A: Its % of total protein abundance is < 0.01%.

Q: And the % of total septin abundance (SEPTIN8 (human) [3])?
A: Its % of total septin abundance is 0.02%.

Q: And the % of total protein abundance (SEPTIN2 (human) [4])?
A: Its % of total protein abundance is 1.81%.

Q: And the % of total septin abundance (SEPTIN2 (human) [4])?
A: Its % of total septin abundance is 25.7%.

Q: What about the fold change between lysate and pulldown (% of total protein abundance) (SEPTIN2 (human) [4]) of the same substance?
A: The fold change between lysate and pulldown (% of total protein abundance) was 60.3 fold.

Q: What about the fold change between lysate and pulldown (% of total septin abundance) (SEPTIN2 (human) [4]) of the same substance?
A: The fold change between lysate and pulldown (% of total septin abundance) was -1.03 fold.

Q: What about the % of total protein abundance (SEPTIN6 (human) [5]) of the same substance?
A: The % of total protein abundance was 1.67%.

Q: And the % of total septin abundance (SEPTIN6 (human) [5])?
A: The % of total septin abundance was 23.8%.

Q: What about the fold change between lysate and pulldown (% of total protein abundance) (SEPTIN6 (human) [5]) of the same substance?
A: The fold change between lysate and pulldown (% of total protein abundance) was 55.7 fold.

Q: What about the fold change between lysate and pulldown (% of total septin abundance) (SEPTIN6 (human) [5]) of the same substance?
A: Its fold change between lysate and pulldown (% of total septin abundance) is -1.33 fold.

Q: What about the % of total protein abundance (SEPTIN9 (human) [6]) of the same substance?
A: Its % of total protein abundance is 1.55%.

Q: What about the % of total septin abundance (SEPTIN9 (human) [6]) of the same substance?
A: The % of total septin abundance was 22.1%.

Q: What about the fold change between lysate and pulldown (% of total protein abundance) (SEPTIN9 (human) [6]) of the same substance?
A: Its fold change between lysate and pulldown (% of total protein abundance) is 77.5 fold.

Q: And the fold change between lysate and pulldown (% of total septin abundance) (SEPTIN9 (human) [6])?
A: Its fold change between lysate and pulldown (% of total septin abundance) is 1.62 fold.

Q: What about the % of total protein abundance (SEPTIN10 (human) [7]) of the same substance?
A: The % of total protein abundance was 0.51%.

Q: What about the % of total septin abundance (SEPTIN10 (human) [7]) of the same substance?
A: The % of total septin abundance was 7.23%.

Q: And the fold change between lysate and pulldown (% of total septin abundance) (SEPTIN10 (human) [7])?
A: Its fold change between lysate and pulldown (% of total septin abundance) is 3.77 fold.

Q: What about the % of total protein abundance (SEPTIN11 (human) [8]) of the same substance?
A: Its % of total protein abundance is 0.08%.

Q: What about the % of total septin abundance (SEPTIN11 (human) [8]) of the same substance?
A: Its % of total septin abundance is 0.94%.

Q: What about the % of total protein abundance (SEPTIN7 (human) [9]) of the same substance?
A: The % of total protein abundance was 2.41%.

Q: And the % of total septin abundance (SEPTIN7 (human) [9])?
A: Its % of total septin abundance is 29.9%.

Q: And the fold change between lysate and pulldown (% of total protein abundance) (SEPTIN7 (human) [9])?
A: Its fold change between lysate and pulldown (% of total protein abundance) is 120 fold.

Q: And the fold change between lysate and pulldown (% of total septin abundance) (SEPTIN7 (human) [9])?
A: Its fold change between lysate and pulldown (% of total septin abundance) is 3.39 fold.

Q: And the % of total protein abundance (SEPTIN8 (human) [10])?
A: Its % of total protein abundance is < 0.01%.

Q: And the % of total septin abundance (SEPTIN8 (human) [10])?
A: The % of total septin abundance was 0.09%.

Q: What about the fold change between lysate and pulldown (% of total septin abundance) (SEPTIN8 (human) [10]) of the same substance?
A: The fold change between lysate and pulldown (% of total septin abundance) was -3.44 fold.

Q: What about the % of total protein abundance (SEPTIN2 (human) [11]) of the same substance?
A: The % of total protein abundance was 2.43%.

Q: And the % of total septin abundance (SEPTIN2 (human) [11])?
A: The % of total septin abundance was 30.1%.

Q: What about the fold change between lysate and pulldown (% of total protein abundance) (SEPTIN2 (human) [11]) of the same substance?
A: The fold change between lysate and pulldown (% of total protein abundance) was 60.8 fold.

Q: And the fold change between lysate and pulldown (% of total septin abundance) (SEPTIN2 (human) [11])?
A: The fold change between lysate and pulldown (% of total septin abundance) was 1.5 fold.

Q: And the % of total protein abundance (SEPTIN6 (human) [12])?
A: Its % of total protein abundance is 1.03%.

Q: And the % of total septin abundance (SEPTIN6 (human) [12])?
A: The % of total septin abundance was 12.8%.

Q: What about the fold change between lysate and pulldown (% of total protein abundance) (SEPTIN6 (human) [12]) of the same substance?
A: The fold change between lysate and pulldown (% of total protein abundance) was 11.4 fold.

Q: What about the fold change between lysate and pulldown (% of total septin abundance) (SEPTIN6 (human) [12]) of the same substance?
A: The fold change between lysate and pulldown (% of total septin abundance) was -3.2 fold.

Q: And the % of total protein abundance (SEPTIN9 (human) [13])?
A: The % of total protein abundance was 1.85%.

Q: And the % of total septin abundance (SEPTIN9 (human) [13])?
A: The % of total septin abundance was 23%.

Q: What about the fold change between lysate and pulldown (% of total protein abundance) (SEPTIN9 (human) [13]) of the same substance?
A: Its fold change between lysate and pulldown (% of total protein abundance) is 61.7 fold.

Q: And the fold change between lysate and pulldown (% of total septin abundance) (SEPTIN9 (human) [13])?
A: Its fold change between lysate and pulldown (% of total septin abundance) is 1.78 fold.

Q: What about the % of total protein abundance (SEPTIN10 (human) [14]) of the same substance?
A: The % of total protein abundance was 0.28%.

Q: And the % of total septin abundance (SEPTIN10 (human) [14])?
A: Its % of total septin abundance is 3.19%.

Q: What about the fold change between lysate and pulldown (% of total protein abundance) (SEPTIN10 (human) [14]) of the same substance?
A: The fold change between lysate and pulldown (% of total protein abundance) was 7 fold.

Q: And the fold change between lysate and pulldown (% of total septin abundance) (SEPTIN10 (human) [14])?
A: The fold change between lysate and pulldown (% of total septin abundance) was -5.32 fold.

— patent US20250268980A1, “AN ANTICANCER THERAPY TARGETING RAS AND OTHER ONCOGENIC SIGNALS BY INHIBITION OF DYNAMIC BLEBBING AND/OR SEPTINS” (THE BOARD OF REGENTS OF THE UNIVERSITY OF TEXAS SYSTEM, priority 2022, published 2025)
